Measurements published in the DeepSol protein solubility set.

experiment: soluble on expression in E. coli; label from the status in PepcDB or PDB records

Sequence | soluble on expression in E. coli
QLLGATVVEHNPLYTAHELEGLFQDHGARVAIAWDKAASTLEKLRDTTSLETIISVNMTEAMPRIQQLALRIPIPPIAAKREQLTAFADNTVPWSTLIGNAIGGNGKRTEFPKVTKDDIALILYTSGTTGTPKGALLSHGNLVSNCFMGKAWVPGLGDQPER | not soluble
MAGDPNSMMIARTLSIFIGTLLLATCSIPTRLNIPTIAITDHPKYKLLLILIDGLRADALEHGQAPQLARLASDGVHARWMTPSYPALTLPNAYTLITGLRPDHHGIVHNTMEDPLLGAFESERQEAISNGRWWGGEPIWVSAEHAGIRSATFLWPGSEASIAGTRPSRWYAYNKHISADTQITQALRWLNERGPDAPRLVILRFEQVNTAGDNFGPDSPQYAAAVNMIDSAIGRLIDSLRQHGKLTDTDVIVVSDQGIAPIPGDHAVPLERIVQLSDVHVVSDGQVLGITPLPGHESKVEAMVLGAHATYDCWRKQALPTHWHYGTHPRIPNIVCQMHEGWNALSAAQITKRNPLQMGGSSGFDPMLPSMRAVFLANGPSFMPNLLLNPINNVDIYPLLARLLGIAMAPNDGNPRALLQALRTSNTANGYTYSKRNALHLEHHHHHH | not soluble
MSLVMVVDGSKLVRKLITDVLRRELPEVDVIGCVGIAEARQTLEAGTVDLVTTSLFLPDGDGLALARSVREEAGQAYVPVIVVSGDTQQHLVERRFTEYVTDYFDKALGHEALAAFIRGYVQPEPVSSGTVLYVEDSCVVAEATTRMLERQGLRVVHVLTAEDAFALLTAESLGRTEYRINLVLTDVTLKGELSGCDVVQRIRIDFSYGKRRLPVLVMTGDTNSQNQSELLRAGANDLVQKPIEERLLVTKVLFQLRLARLKDDLATIEGHHHHHH | not soluble
MAFYNSIPLIGKHLKSESRAKKYTSEEFKRLEREYRDHIGLPENSSFSSDAFDKLVSSRVDDFRAFPKTNLPGGLLFHDKLKEANTTEGDNIRDVLSKTVLAPTEKFKTAQKNFTESTSTFKELTKLIPSKFRAQDLVGTMKELTDDARKAIIEQQAHEIQMLKEKLDPQKEGQAGNYVSDFKKALGLKDNDEVKKVTEGLIKELEETHKKQLGEFDKSTSDSLNQLHKASASESSEYLFLANLYENNKEMRQTLEKLYAKERQRKGLPPESTTVQVGISENKIDLNGIKLKDIPVIKSITGREIHQQPDGSFAIQMPMINPFYYQDPRQNVKTDMMLIAQAIKASGYDSIEMNCNFPNSEKVAMERGRQAFAACIEAGFPVDKITINVNGKPMKADELFKEHPKTYQDIMSRASKISKDYEDIKAPKTSTAPVNTVVVKQEIAALRTKQQQEERAQTQPVDEQRHGVTPNNLEHHHHHH | not soluble
MAHHHHHHMTAAERLRRSRDNAVHHPKPSAATSSTISPALALSSSNSSPSANAAVPIEISPPPPNQGAVMIRYSKQQLLSLRPAAIEHVMRGRVVDHPPFLKIPESFAPLLSLPFAMEYVNVDAAMQLVEHRSYASRPASSPPTSVARTEDLDDEAQARLYTCPVCAQGRLHSCTAIQHILQRTSRYFMSTKLGAALMQPALVVESLLQLALVFDAKQSSLRLRMLAEQSPRVVHLVEEYLCGEGYHLPLPPVTAHEDWAALNAMLRFDAIRDNKTRVITDLSKHWKKRRTQFEQFVYFFAFRDARPVRPAKNIITKSAKPGMVAMLTGDVPAMVLLHRLGFFIPPDYYWKVFPFLRQALGEGTLSYDVVRHLGLYLSSAQPADMYNPVEVPIHA | soluble
MFYITSKKVPFVTYSKNVFIPVTNICRNQCGYCGFRREPGQPGARLMKPEEVISVLENGVRAGCTEALFTFGERAEEVPGYGEMLEEIGYSSTLEYLVFLCETAIDIGILPHTNAGIMTRSELEALKPLNASMGLMLESTAVLAAHKDCPGKIPERRLETIREAGKLKIPYTTGLLIGIGESRDDRIESLEAIAALHREYGHIQEVIIQNFAPKPGTEMENFPEPAVEEMMDSVELAARILPGDVAVQVAPNLIDPKSLIAKGVTDLGGISPLTIDWINPEAEWPDVKNLQKKLGDIPLKERLPVYPPYVKKGWYSERIGSLIKRLSDNSGYLEHHHHHH | not soluble
MYIQILGSAAGGGFPQWNCNCVNCAGFRDGSLRAQARTQSSIALSDDGVNWVLCNASPDIRAQLQGFAPMQPGRALRDTGISAIVLMDSQIDHTTGLLSLREGCPHQVWCTDMVHEDLSTGFPLFEMLKHWNGGLNWNRIELQGSFVIPACPNLRFTPFPLRSAAPPYSPHRFDPHPGDNIGLLVEDTRTGGKLFYAPGLGKVDEALAEKMRDADCLLVDGTMWDDDEMQRRGVGTRTGREMGHLAQNGPGGMLDVLEGFPEQRKVLIHINNTNPILDEDSPERAELVRRNVEVAFDGMSIELLEHHHHHH | soluble
MAHHHHHHMDAVKRHSQSTWPVSMPPLHAGTQEERMTGEEAGSSTKHTEGTNDRREKHRHGPHPGRRLHTSPHTHTHHRSAVSLRVRGFGPPHNKRTHRQQLTTNDKEEKRHTAATVSSSVPRPTGYGHSPAANTQHARSKLSHKVPHAEAGPHPPMTRRLTPCGHTECTDSPIERIRRPSLKAASVIDGP | soluble
MIVIFVHGWSVTHTNTYGELPQWLENQSKQGKLDIQVGNIYLGRYISFDDTVTVDDIARAFDQAVRDEIAAKVKDGQRFACITHSTGGPIVRKWMDLYFKNNLAKCPLSHLIMLAPANHGSALAQLGKSRLGRIKSFFEGIEPGKCVLDWLELGSDMSWQLNESWLDYDCTANGVYSFVLTGQKIDRQLYDAVNSYTGESGSDGVVRVAATNMNYSLLKLHQEGDNGESLVVAKMTRTQPMAFGVLPGLSHSGKNIGIIRSITMANAATHPTAIWVLRCLQVKSRDSYNKLVKELDNITKETQKNEHKEFVKTLVFTREYITNRYSMIIFRLIDDRGNHLIDYDLYLTAGPQYSEQALPAGFFVDRQRNLNNRGKLTYFLDYDIMEGGINTPKMQGNLGFRVKAYPESSEQALAYYRLLDFHSSLADIHKILHPNETVMVEIMLQRRVDKTVFRINNNLTPAKISGKPTGKKID | not soluble
MARVAIPSVGKDLSSMVSDRFARAEYFIIYDTESGNVEVVENTIADAHGTGPKVVQSLVSKGVEYLIASNVGRNAFETLKAAGVKVYRFEGGTVQEAIDAFSEGRLEELTTFTREG | soluble
MDERPVLFFDSGIGGLTVLREVRSLIPEKQFIYVADDVGFPYGNWEENVLKNRILKIFTNLLTVYNPALCVIACNTVSTLMIADLRERFPHILFVGTVPAIKLAAEQTKSGFISVLATPGTVKRTYTHELINSFAGQCHVQLVGSEKLAGFAENYLRGQSVDLEELRNEILPCFVKKNGKHTDIIVLACTHYPFLLHFFREQALWHVQWIDPSKAIAKRTRSLLPQRIHHQTVKKYEDFALFTSQNITSSTKRLLKEFSLNITKGVDFKV | not soluble
MMNKDLSYCIVLSSEQLSYLAGSKYGIDRMKILNRLIEATVLEQTEYSKKGFAMTLQVGQAALSEVELSCKLGYDKKTISRVIDKMNQLGIVASVQSNRTSIHTQKCVSAWMLDGKRIDNPFYVRMKNRKDGNEKTANRPYNNSILPMKQQHILESNAEANCPTQTQTDNTAVSDETYSPDLSTSPTSSETPVTAYDDKNRNGYDELKAETNNHELLHTPTTTSGYEIAGNGSDNDAAQVNSTSAYPTTTLASPQPLAEEEPTNDQGNDWQL | not soluble
MSLRKASVFIVELKFEQESCPLGVVIPLEESKNKLASVKPLVDLTRADMEQVNQLILSRAGSDVQMIPEVANHLISSGGKRLRPMLTLASASMFGYEGDHHIKLATSVEFMHTATLLHDDVVDESDLRRGKSTARTIWGNQASVLVGDFLLGQAFRMMVDVGSLDALDVLSTAASVIAEGEVLQLSVAKNMETTEDDYLQVIRAKTAALFAAAAEVGPIVAKTDKASRSALKSYGMNLGLAFQLVDDVLDYGGKSADLGKNTGDDFREGKITLPVILSYRRGTQDERAFWRNAIENGESSDENLEKALGLITKYNGLGDTIGRATHYGTIARDALAPLPESPWKNALLEVIDFCIERLNEGHHHHHH | soluble
MTSLCNKELSDTLVGLYDDYKRGFDIGEELKLCVDLALTLELELSIHRLSETDTVLKKEIIQTLQNRRNSHSNEDETIDETGTIIQMDFKERN | soluble
MLKKYTRYSNFRLISQIQFQRHIDIFHAITYDNIDGLVAAFVRNEPFDIKDKNGNTPLHLAAKLNRRLLCRAVCVYAAGLDLWNSKNNDGKTPIEMTDDANIKRDLQSISTSRSSVDSHHMAYNKLLIEKKINENEEQNQNQKVILSLDGGGLRVVLQCAILLAVERELGEPLRNRIHWIAGTSCGGIMASSIGVGIDLADALRLYIIIRKRIFGGNNQKFPKHSALGIETCLQEVMGSKTLMSKCTAHRLVVTTAKVTLAPPQLVLFRSYAPRIDSKEFEQLGYFNPNKILLWKAIRCTTAAPTYFPSFNGMADGALFCNNPCIMVMTEFAKLKKIENYRGKNNTDEIGCVISVGTGIEPSYPINGIDINLTSGLTGITGNWREIIENTKNLITVFLYQCTSSHNVHVGQSREWCHSMQVPFFRFSPHLAAPFELDNCKIEDITNAMFDNEVYIRTEIKQHISDLCRLLKSMPRNTEPCNYSKITGGKGSKVGSPKSDKK | not soluble
MGSDKIHHHHHHVDRGCQWRGDDSLRGQRHERRGQLRLMGAAEYASQVRTLPKLGLGVGLRNEHFNHILSERPNVDWFEAISENFMDSGGRPGWVIRQIAEHYPIVLHGVSLSIGSADPLNEGYLARLKLLADDVQAKWVSDHLCWTGVLSINSHDLLPLPLNEETLGHVTSRVHHVQEVLGRPLILENPSTYASFQTSDIPEPEFLRALSDATGCGLLLDVNNVYVSCFNDGTDPLEYLEKIPFEKVIQMHLAGHTNCGEFLLDTHDQPVTRGVWELFRLAWQRTGGAATLLEWDGDVPAFEDLHAEVLKAREFMAGEVEALHLYQGAAAPGRARVSNPVDHIVSPVRGHSRLDA | not soluble
MSRSSVTGKEFVIRYVFNDVSNMNENDMRISTVEEYFNVPWIFQIQRNNGNLGIYLRCRKLKGQEMWSMFTELELKLISVYSDTRDQKCKTDMCFGHDSGKFYSSYGWSEFISWNELETSFMDAGSITVEARVIINKSIGFYTPKLMNFDEKKKEYSDIVVLVDGQRFYLLKKFLAFHSTFFESLFLGGFYEAKLTEVPLYDIDVDDFQKFLEVLYGFPVINDNTVEGILLLADMYQTPLVSELCEDFLIQTTGKTYKKKLQMAIKFNLENLKQFCISMIKSPFDLRSMIPSDISSIDHSTLAALFTKSLTLMK | not soluble
MTDRRQYAPATQRNRETIAAVLQEYLPSQGSILEIASGTGEHACFFAPLFSPRWWITSDPDPLCRESIMAWRDHQALANFQSPLDLDVNDQVWPVEREILREPVTSIVAINLIHISPWESCLGLLTGAERILPEGGILYLYGPYRQKGVPTAPSNEAFDQSLQSRNPAWGLRQLEDVIGEAGKRNLHNQAIIPMPANNLSVIFQKGLEHHHHHH | not soluble
MKERLEHYSTSSIYSGFEVYLPLVLQTITDVIIAENIKSKKETGFKLYEHFTSRIKSEASMIEKCQRKQLPLTSKSALKIIKDSIGIRIICGFIDDIYRMVDLLKSIPGMSVNTEKDYILNAKPNGYRSYHLILELETHFPDILGEKKGCYFIEVQLRTIAQDSWASLEHQMKYKHQVANAEMITRELKRCADELASCDVTMQTIRQLIQETTEEE | not soluble
SGSRDHLFKVLVVGDAAVGKTSLVQRYSQDSFSKHYKSTVGVDFALKVLQWSDYEIVRLQLWDIAGQERFTSMTRLYYRDASACVIMFDVTNATTFSNSQRWKQDLDSKLTLPNGEPVPCLLLANKCDLSPWAVSRDQIDRFSKENGFTGWTETSVKENKNINEAMRVLIEKMMRNSTEDIMSLSTQGDYINLQTKSSSWSCC | soluble
